Measured values published in the Immune Epitope Database (IEDB).

Experiments:
HLA-B*57:01 [1] = assay: IEDB peptide-MHC binding, purified MHC/competitive/radioactivity; filed as Kd, often an IC50 or EC50 that approximates it; ≥ and ≤ were set here for values at or beyond the usual limits of such assays
HLA-A*23:01 = assay: as above; details: source organism: Dengue virus 1 Singapore/S275/1990
HLA-A*01:01 [2] = assay: as above
HLA-A*26:01 [3] = assay: as above; details: source organism: Dengue virus 1 Singapore/S275/1990
HLA-B*58:01 [4] = assay: as above
HLA-A*24:02 = assay: as above; details: source organism: Dengue virus 1 Singapore/S275/1990
HLA-B*15:17 [5] = assay: IEDB peptide-MHC binding, purified MHC/direct/fluorescence; filed as Kd, often an IC50 or EC50 that approximates it; ≥ and ≤ were set here for values at or beyond the usual limits of such assays
HLA-B*58:01 [6] = assay: as above
HLA-B*57:01 [7] = assay: as above
HLA-B*39:01 [8] = assay: as above
HLA-B*53:01 = assay: IEDB peptide-MHC binding, purified MHC/competitive/radioactivity; filed as Kd, often an IC50 or EC50 that approximates it; ≥ and ≤ were set here for values at or beyond the usual limits of such assays
HLA-A*01:01 [9] = assay: IEDB peptide-MHC binding, purified MHC/direct/fluorescence; filed as Kd, often an IC50 or EC50 that approximates it; ≥ and ≤ were set here for values at or beyond the usual limits of such assays; details: source organism: Giardia lamblia ATCC 50803
HLA-A*02:01 [10] = assay: as above; details: source organism: Giardia lamblia ATCC 50803
HLA-A*03:01 [11] = assay: as above
HLA-A*69:01 [12] = assay: as above; details: source organism: Giardia lamblia ATCC 50803
HLA-B*07:02 = assay: as above; details: source organism: Giardia lamblia ATCC 50803
HLA-B*08:01 = assay: as above; details: source organism: Giardia lamblia ATCC 50803
HLA-A*26:01 [13] = assay: as above; details: source organism: Giardia lamblia ATCC 50803
HLA-B*40:01 = assay: as above; details: source organism: Giardia lamblia ATCC 50803
HLA-B*27:05 = assay: as above; details: source organism: Giardia lamblia ATCC 50803
HLA-A*31:01 = assay: as above; details: source organism: Giardia lamblia ATCC 50803
HLA-B*15:01 [14] = assay: as above; details: source organism: Giardia lamblia ATCC 50803
HLA-B*44:02 = assay: as above; details: source organism: Giardia lamblia ATCC 50803
HLA-A*11:01 = assay: as above; details: source organism: Giardia lamblia ATCC 50803
HLA-A*02:03 = assay: as above
HLA-A*02:11 = assay: as above
HLA-A*02:16 = assay: as above
HLA-A*24:03 = assay: as above
HLA-A*68:02 = assay: as above
HLA-A*02:19 = assay: as above
HLA-A*02:12 = assay: as above
HLA-B*15:17 [15] = assay: IEDB peptide-MHC binding, purified MHC/competitive/fluorescence; filed as Kd, often an IC50 or EC50 that approximates it; ≥ and ≤ were set here for values at or beyond the usual limits of such assays
HLA-A*02:01 [16] = assay: as above
HLA-B*27:03 = assay: as above
HLA-A*69:01 [17] = assay: as above
HLA-A*26:01 [18] = assay: as above
HLA-B*51:01 = assay: as above
HLA-B*18:01 = assay: as above; details: source organism: Reston ebolavirus
HLA-B*15:01 [19] = assay: as above; details: source organism: Reston ebolavirus
HLA-B*46:01 = assay: as above
HLA-B*39:01 [20] = assay: as above
HLA-B*57:01 [21] = assay: as above
HLA-A*03:01 [22] = assay: as above; details: source organism: Four Corners hantavirus
[23] = source organism: Dengue virus 1 Singapore/S275/1990
[24] = source organism: Dengue virus 3 Martinique/1243/1999
[25] = source organism: Dengue virus 1 Brazil/97-11/1997
[26] = source organism: Listeria monocytogenes FSL N3-165
[27] = source organism: Dengue virus 4 Philippines/H241/1956
[28] = source organism: Dengue virus 3 Sri Lanka/1266/2000
[29] = source organism: Escherichia coli O157:H7
[30] = source organism: Giardia lamblia ATCC 50803
[31] = source organism: Reston ebolavirus
[32] = source organism: Limestone Canyon virus
[33] = source organism: Four Corners hantavirus

For PASAWTLYAV, the Kd (HLA-B*57:01 [1]; source organism: Dengue virus 2 Jamaica/1409/1983) was 1110 nM.

In the case of VTARWLWGF, the Kd (HLA-A*23:01) is reported as 134 nM, the Kd (HLA-A*01:01 [2]; [23]) is reported as 4000 nM and the Kd (HLA-A*26:01 [3]) is reported as 7070 nM. It also gave a Kd (HLA-B*58:01 [4]; [23]) of 38 nM, a Kd (HLA-A*24:02) of 152 nM and a Kd (HLA-B*57:01 [1]; [23]) of 1.6 nM.

In the case of IASSGMLWMA, the Kd (HLA-B*58:01 [4]; [24]) is reported as 1020 nM and the Kd (HLA-B*57:01 [1]; [24]) is reported as 10400 nM.

Work on LTSREVLLLT yielded a Kd (HLA-B*58:01 [4]; [25]) of 409 nM and a Kd (HLA-B*57:01 [1]; [25]) of 712 nM.

With IARISALGF the Kd (HLA-B*15:17 [5]; source organism: Brucella suis) was 3.6 nM, the Kd (HLA-B*58:01 [6]; source organism: Brucella suis) was 14000 nM and the Kd (HLA-B*57:01 [7]; source organism: Brucella suis 1330) was 88 nM.

VSSWEEVPYL showed a Kd (HLA-A*01:01 [2]; [25]) of 12400 nM, a Kd (HLA-B*58:01 [4]; [25]) of 256 nM and a Kd (HLA-B*57:01 [1]; [25]) of 384 nM.

In the case of WTRPRYIEI, the Kd (HLA-B*15:17 [5]; source organism: Listeria monocytogenes) is reported as 270 nM, the Kd (HLA-B*58:01 [6]; [26]) is reported as 429 nM and the Kd (HLA-B*57:01 [7]; [26]) is reported as no less than 20000 nM.

Sequence FRGRGVFEL has a Kd (HLA-B*39:01 [8]; source organism: Influenza A virus (A/Moscow/10/1999(H3N2))) of 62.1 nM.

In the case of ILIGFLVLW, the Kd (HLA-B*58:01 [4]; [27]) is reported as 403 nM and the Kd (HLA-B*57:01 [1]; [27]) is reported as 1250 nM.

With AAVEDEEFW the Kd (HLA-B*58:01 [4]; [28]) was 4.41 nM, the Kd (HLA-B*57:01 [1]; [28]) was 1100 nM and the Kd (HLA-B*53:01; [28]) was 10.7 nM.

Sequence PTSYLDVDLH has a Kd (HLA-B*57:01 [1]; [24]) of no less than 37400 nM.

KSWPAAIDW was tested, and the Kd (HLA-B*15:17 [5]; [29]) was 1.3 nM, the Kd (HLA-B*58:01 [6]; [29]) was 1.5 nM and the Kd (HLA-B*57:01 [7]; [29]) was 32 nM.

In the case of SHSIPNGLL, the Kd (HLA-A*01:01 [9]) is reported as no less than 20000 nM, the Kd (HLA-A*02:01 [10]) is reported as no less than 20000 nM and the Kd (HLA-A*03:01 [11]; [30]) is reported as no less than 20000 nM. The Kd (HLA-A*69:01 [12]) was no less than 20000 nM, the Kd (HLA-B*07:02) was no less than 20000 nM and the Kd (HLA-B*08:01) was no less than 20000 nM. It also gave a Kd (HLA-A*26:01 [13]) of no less than 20000 nM, a Kd (HLA-B*40:01) of no less than 20000 nM and a Kd (HLA-B*58:01 [6]; [30]) of no less than 20000 nM. It also gave a Kd (HLA-B*27:05) of no less than 20000 nM, a Kd (HLA-A*31:01) of no less than 20000 nM and a Kd (HLA-B*15:01 [14]) of no less than 20000 nM. It also gave a Kd (HLA-B*39:01 [8]; [30]) of 353 nM, a Kd (HLA-B*44:02) of no less than 20000 nM and a Kd (HLA-A*11:01) of no less than 20000 nM.

For YATQTVGPW, the Kd (HLA-B*58:01 [4]; [27]) was 16.8 nM, the Kd (HLA-B*57:01 [1]; [27]) was 605 nM and the Kd (HLA-B*53:01; [27]) was 27.9 nM.

WFQRIPLQW was tested, and the Kd (HLA-A*02:03; [31]) was no less than 20000 nM, the Kd (HLA-A*03:01 [11]; [31]) was no less than 20000 nM and the Kd (HLA-A*02:11; [31]) was no less than 20000 nM. The Kd (HLA-A*02:16; [31]) was no less than 20000 nM, the Kd (HLA-A*24:03; source organism: Tai Forest virus - Cote d'Ivoire, Cote d'Ivoire, 1994) was 0.3 nM and the Kd (HLA-A*68:02; [31]) was no less than 20000 nM. The Kd (HLA-A*02:19; [31]) was no less than 20000 nM, the Kd (HLA-A*02:12; [31]) was no less than 20000 nM and the Kd (HLA-B*15:17 [15]; [31]) was no less than 20000 nM. The Kd (HLA-A*02:01 [16]; [31]) was no less than 20000 nM, the Kd (HLA-B*27:03; [31]) was no less than 20000 nM and the Kd (HLA-A*69:01 [17]; [31]) was no less than 20000 nM. It also gave a Kd (HLA-A*26:01 [18]; [31]) of no less than 20000 nM, a Kd (HLA-B*51:01; [31]) of no less than 20000 nM and a Kd (HLA-B*18:01) of no less than 20000 nM. For the same sequence, the Kd (HLA-B*15:01 [19]) was no less than 20000 nM, the Kd (HLA-B*46:01; [31]) was no less than 20000 nM and the Kd (HLA-B*39:01 [20]; [31]) was no less than 20000 nM. The Kd (HLA-B*57:01 [21]; [31]) was no less than 20000 nM.

With LSSRAKLALD the Kd (HLA-B*58:01 [4]; [27]) was 362 nM and the Kd (HLA-B*57:01 [1]; [27]) was 7420 nM.

AVFQEEQGW showed a Kd (HLA-B*57:01 [1]; [27]) of 34 nM.

KLKKKSAFY gave a Kd (HLA-A*02:03; [32]) of no less than 20000 nM, a Kd (HLA-A*02:11; [32]) of no less than 20000 nM and a Kd (HLA-A*02:16; [32]) of no less than 20000 nM. It also gave a Kd (HLA-A*24:03; [32]) of no less than 20000 nM, a Kd (HLA-A*68:02; [32]) of no less than 20000 nM and a Kd (HLA-A*02:19; [32]) of no less than 20000 nM. It also gave a Kd (HLA-A*02:12; [32]) of no less than 20000 nM, a Kd (HLA-B*15:17 [15]; [33]) of no less than 20000 nM and a Kd (HLA-A*02:01 [16]; [33]) of no less than 20000 nM. It also gave a Kd (HLA-B*27:03; [33]) of no less than 20000 nM, a Kd (HLA-A*03:01 [22]) of 45.1 nM and a Kd (HLA-A*69:01 [17]; [33]) of no less than 20000 nM. For the same sequence, the Kd (HLA-A*26:01 [18]; [33]) was no less than 20000 nM, the Kd (HLA-B*51:01; [33]) was no less than 20000 nM and the Kd (HLA-B*46:01; [33]) was no less than 20000 nM. The Kd (HLA-B*39:01 [20]; [33]) was no less than 20000 nM and the Kd (HLA-B*57:01 [21]; [33]) was no less than 20000 nM.
